Target: T1, FLAG epitope-tagged holoreceptor of human type 1 insulin-like growth factor receptor (hIGFR) (human, UniProt P08069 31-1367)
T1 construct: The holoreceptor was captured on 96 well plates coated with anti-FLAG monoclonal antibody; also called IGF-R1; IGF-1R
Assay: competitive displacement of 125I-labeled human insulin from plate-captured FLAG-tagged hIGFR

T1 sequence (P08069 31-1367 limits assumed): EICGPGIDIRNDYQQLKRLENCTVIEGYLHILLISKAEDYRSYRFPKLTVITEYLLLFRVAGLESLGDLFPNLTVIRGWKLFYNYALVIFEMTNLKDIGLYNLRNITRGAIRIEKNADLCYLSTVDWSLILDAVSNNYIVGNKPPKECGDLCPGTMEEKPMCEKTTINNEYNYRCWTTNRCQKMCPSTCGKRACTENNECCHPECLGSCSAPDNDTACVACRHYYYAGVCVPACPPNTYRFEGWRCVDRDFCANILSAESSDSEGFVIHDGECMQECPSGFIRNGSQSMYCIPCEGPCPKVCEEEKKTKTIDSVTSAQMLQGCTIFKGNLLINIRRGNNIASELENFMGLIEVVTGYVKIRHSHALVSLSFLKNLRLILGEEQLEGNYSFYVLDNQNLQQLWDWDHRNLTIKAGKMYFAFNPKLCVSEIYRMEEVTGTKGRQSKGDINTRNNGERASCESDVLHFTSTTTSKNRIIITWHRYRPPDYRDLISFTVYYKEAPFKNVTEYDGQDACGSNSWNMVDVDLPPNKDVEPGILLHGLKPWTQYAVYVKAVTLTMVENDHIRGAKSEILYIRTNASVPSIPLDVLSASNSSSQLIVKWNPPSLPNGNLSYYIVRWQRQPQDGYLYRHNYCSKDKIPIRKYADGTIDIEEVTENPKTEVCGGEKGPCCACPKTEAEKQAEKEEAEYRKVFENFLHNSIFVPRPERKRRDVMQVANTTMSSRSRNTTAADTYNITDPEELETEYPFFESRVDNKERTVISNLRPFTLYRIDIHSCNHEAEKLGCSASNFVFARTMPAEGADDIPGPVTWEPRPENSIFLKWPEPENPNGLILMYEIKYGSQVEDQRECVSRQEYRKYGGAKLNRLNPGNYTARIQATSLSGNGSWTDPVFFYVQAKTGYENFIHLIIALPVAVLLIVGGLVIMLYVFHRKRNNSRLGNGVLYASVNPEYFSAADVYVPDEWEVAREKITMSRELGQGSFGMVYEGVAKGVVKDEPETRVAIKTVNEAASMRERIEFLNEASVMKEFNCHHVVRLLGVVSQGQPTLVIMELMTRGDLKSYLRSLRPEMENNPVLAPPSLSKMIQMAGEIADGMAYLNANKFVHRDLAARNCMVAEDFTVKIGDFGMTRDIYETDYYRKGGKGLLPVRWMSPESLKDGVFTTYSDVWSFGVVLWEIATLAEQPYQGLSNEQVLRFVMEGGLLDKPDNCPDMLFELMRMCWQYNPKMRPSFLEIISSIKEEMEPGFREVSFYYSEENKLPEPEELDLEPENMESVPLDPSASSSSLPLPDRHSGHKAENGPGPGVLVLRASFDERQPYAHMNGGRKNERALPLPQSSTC

B1: des-[B1, B2], Glu^B3, His^A8, Glu^A14, Gln^A17, des-B30-insulin (T-0706) (ligand)
chain 1: GIVEQCCHSICSLEQLQNYCN
chain 2: EQHLCGSHLVEALYLVCGERGFFYTPK
modifications: not fully specified
notes: Formulated without zinc; also called HA8 EA14 QA17 des[B1-B2]; EB3 desB30
Q: How did the “Binding Affinity” value turn out when B1 was run?
A: The value was 0.16.

Q: And the “IGF1-R (Rel. Aff.), relative to insulin lispro” value?
A: Its value is 18%.

Source: patent publication US20220112262A1 (CASE WESTERN RESERVE UNIVERSITY, published 2022)
